Laboratory results: paper PMC7689490, “Designed CXCR4 mimic acts as a soluble chemokine receptor that blocks atherogenic inflammation by agonist-specific targeting” (Nature Communications, 2020)
Where “and” joins values, the source holds several entries; their conditions need not be identical. Equal entries are not always repeated.

How the values were obtained:
Fluos-msR4M-L1 (human) [1] = target: Fluos-msR4M-L1 (human) (UniProt P61073); test: other fluorescence titration; 5 nM Fluos-labeled ectodomain peptide titrated with unlabeled MIF, MIF peptide or CXCL12; 10 mM sodium phosphate, pH 7.4, 1% HFIP; emission at 522 nm; apparent KD, 1/1 binding model; one constant for each of three curves
[2] = target: 5(6)-carboxytetramethylrhodamine (TAMRA)-msR4M-L1 (human) (UniProt P61073); test: MST; 100 nM TAMRA-msR4M-L1 titrated with MIF or CXCL12; 20 mM sodium phosphate, pH 7.2, Tween-20; 37 °C; apparent KD
Fluos-msR4M-L1 (human) [3] = target: Fluos-msR4M-L1 (human) (UniProt P61073); test: fluorescence polarisation; 5 nM Fluos-msR4M-L1 titrated with unlabeled MIF (0.5 to 277.5 nM); 10 mM sodium phosphate, pH 7.2, 0.5% HFIP; RT; apparent KD
[4] = target: Fluos-ECL2 (fluorescein-labelled ECL2[182–196] peptide of CXCR4) (human) (UniProt P61073); test: other fluorescence titration; Fluos-labelled CXCR4 ectodomain peptide at 5 nM titrated with unlabelled MIF, MIF(10xAla), CXCL12 or MIF peptide fragments; 10 mM sodium phosphate, pH 7.4, 1% HFIP; emission at 522 nm; apparent KD, 1/1 binding model

Row | Substance | Kd (Fluos-msR4M-L1 (human) [1]) | Kd [2] | Kd (Fluos-msR4M-L1 (human) [3]) | Kd [4]
1 | MIF peptide 54–80 (from UniProt P14174 54-80) | 86.6 nM and 59.7 nM and 65.3 nM |  |  | 
2 | macrophage migration-inhibitory factor (MIF), recombinant human (from UniProt P14174 1-115) (natural protein) | 44.7 nM and 40.4 nM and 36.9 nM | 51.7 nM and 120 nM and 60.1 nM | 24.1 nM and 19.3 nM and 29.9 nM | 
3 | macrophage migration-inhibitory factor (MIF), recombinant human, unlabelled (from UniProt P14174 1-115) (natural protein) |  |  |  | > 5000 nM
4 | MIF peptide 38–80 (from UniProt P14174 38-80) | 64.6 nM and 49 nM and 57.7 nM |  |  | 
